From patent US20230395193A1 (priority 2020, published 2023)

B1: E-Q6DD88 (protein, UniProt Q6DD88 1-541, looked up)
Atlastin-3: MLSPQRVAAAASRGADDAMESSKPGPVQVVLVQKDQHSFELDEKALASILLQDHIRDLDVVVVSVAGAFRKGKSFILDFMLRYLYSQKESGHSNWLGDPEEPLTGFSWRGGSDPETTGIQIWSEVFTVEKPGGKKVAVVLMDTQGAFDSQSTVKDCATIFALSTMTSSVQIYNLSQNIQEDDLQQLQLFTEYGRLAMDEIFQKPFQTLMFLVRDWSFPYEYSYGLQGGMAFLDKRLQVKEHQHEEIQNVRNHIHSCFSDVTCFLLPHPGLQVATSPDFDGKLKDIAGEFKEQLQALIPYVLNPSKLMEKEINGSKVTCRGLLEYFKAYIKIYQGEDLPHPKSMLQATAEANNLAAAASAKDIYYNNMEEVCGGEKPYLSPDILEEKHCEFKQLALDHFKKTKKMGGKDFSFRYQQELEEEIKELYENFCKHNGSKNVFSTFRTPAVLFTGIVALYIASGLTGFIGLEVVAQLFNCMVGLLLIALLTWGYIRYSGQYRELGGAIDFGAAYVLEQASSHIGNSTQATVRDAVVGRPSMDKKAQ
modifications: interactor of SARS-CoV-2 E
B2: E-Q8IWA5 (protein, UniProt Q8IWA5 1-706, looked up)
Choline transporter-like …: MGDERPHYYGKHGTPQKYDPTFKGPIYNRGCTDIICCVFLLLAIVGYVAVGIIAWTHGDPRKVIYPTDSRGEFCGQKGTKNENKPYLFYFNIVKCASPLVLLEFQCPTPQICVEKCPDRYLTYLNARSSRDFEYYKQFCVPGFKNNKGVAEVLQDGDCPAVLIPSKPLARRCFPAIHAYKGVLMVGNETTYEDGHGSRKNITDLVEGAKKANGVLEARQLAMRIFEDYTVSWYWIIIGLVIAMAMSLLFIILLRFLAGIMVWVMIIMVILVLGYGIFHCYMEYSRLRGEAGSDVSLVDLGFQTDFRVYLHLRQTWLAFMIILSILEVIIILLLIFLRKRILIAIALIKEASRAVGYVMCSLLYPLVTFFLLCLCIAYWASTAVFLSTSNEAVYKIFDDSPCPFTAKTCNPETFPSSNESRQCPNARCQFAFYGGESGYHRALLGLQIFNAFMFFWLANFVLALGQVTLAGAFASYYWALRKPDDLPAFPLFSAFGRALRYHTGSLAFGALILAIVQIIRVILEYLDQRLKAAENKFAKCLMTCLKCCFWCLEKFIKFLNRNAYIMIAIYGTNFCTSARNAFFLLMRNIIRVAVLDKVTDFLFLLGKLLIVGSVGILAFFFFTHRIRIVQDTAPPLNYYWVPILTVIVGSYLIAHGFFSVYGMCVDTLFLCFLEDLERNDGSAERPYFMSSTLKKLLNKTNKKAAES
B3: M-Q9UKV5 (protein, UniProt Q9UKV5 1-643, looked up)
E3 ubiquitin-protein ligase …: MPLLFLERFPWPSLRTYTGLSGLALLGTIISAYRALSQPEAGPGEPDQLTASLQPEPPAPARPSAGGPRARDVAQYLLSDSLFVWVLVNTACCVLMLVAKLIQCIVFGPLRVSERQHLKDKFWNFIFYKFIFIFGVLNVQTVEEVVMWCLWFAGLVFLHLMVQLCKDRFEYLSFSPTTPMSSHGRVLSLLVAMLLSCCGLAAVCSITGYTHGMHTLAFMAAESLLVTVRTAHVILRYVIHLWDLNHEGTWEGKGTYVYYTDFVMELTLLSLDLMHHIHMLLFGNIWLSMASLVIFMQLRYLFHEVQRRIRRHKNYLRVVGNMEARFAVATPEELAVNNDDCAICWDSMQAARKLPCGHLFHNSCLRSWLEQDTSCPTCRMSLNIADNNRVREEHQGENLDENLVPVAAAEGRPRLNQHNHFFHFDGSRIASWLPSFSVEVMHTTNILGITQASNSQLNAMAHQIQEMFPQVPYHLVLQDLQLTRSVEITTDNILEGRIQVPFPTQRSDSIRPALNSPVERPSSDQEEGETSAQTERVPLDLSPRLEETLDFGEVEVEPSEVEDFEARGSRFSKSADERQRMLVQRKDELLQQARKRFLNKSSEDDAASESFLPSEGASSDPVTLRRRMLAAAAERRLQKQQTS
B4: E-Q8WY22 (protein, UniProt Q8WY22 1-251, looked up)
BRI3-binding protein: MGARASGGPLARAGLLLLLLLLLLLGLLAPGAQGARGRGGAEKNSYRRTVNTFSQSVSSLFGEDNVRAAQKFLARLTERFVLGVDMFVETLWKVWTELLDVLGLDVSNLSQYFSPASVSSSPARALLLVGVVLLAYWFLSLTLGFTFSVLHVVFGRFFWIVRVVLFSMSCVYILHKYEGEPENAVLPLCFVVAVYFMTGPMGFYWRSSPSGPSNPSNPSVEEKLEHLEKQVRLLNIRLNRVLESLDRSKDK
modifications: prey of SARS-CoV-2 E
B5: E-Q6UX04 (protein, UniProt Q6UX04 2-472, looked up)
Spliceosome-associated …: SNIYIQEPPTNGKVLLKTTAGDIDIELWSKEAPKACRNFIQLCLEAYYDNTIFHRVVPGFIVQGGDPTGTGSGGESIYGAPFKDEFHSRLRFNRRGLVAMANAGSHDNGSQFFFTLGRADELNNKHTIFGKVTGDTVYNMLRLSEVDIDDDERPHNPHKIKSCEVLFNPFDDIIPREIKRLKKEKPEEEVKKLKPKGTKNFSLLSFGEEAEEEEEEVNRVSQSMKGKSKSSHDLLKDDPHLSSVPVVESEKGDAPDLVDDGEDESAEHDEYIDGDEKNLMRERIAKKLKKDTSANVKSAGEGEVEKKSVSRSEELRKEARQLKRELLAAKQKKVENAAKQAEKRSEEEEAPPDGAVAEYRREKQKYEALRKQQSKKGTSREDQTLALLNQFKSKLTQAIAETPENDIPETEVEDDEGWMSHVLQFEDKSRKVKDASMQDSDTFEIYDPRNPVNKRRREESKKLMREKKERR
modifications: interactor of E protein
B6: M-Q9ULF5 (protein, UniProt Q9ULF5 26-831, looked up)
Zinc transporter ZIP10: HEEHDHGPEALHRQHRGMTELEPSKFSKQAAENEKKYYIEKLFERYGENGRLSFFGLEKLLTNLGLGERKVVEINHEDLGHDHVSHLDILAVQEGKHFHSHNHQHSHNHLNSENQTVTSVSTKRNHKCDPEKETVEVSVKSDDKHMHDHNHRLRHHHRLHHHLDHNNTHHFHNDSITPSERGEPSNEPSTETNKTQEQSDVKLPKGKRKKKGRKSNENSEVITPGFPPNHDQGEQYEHNRVHKPDRVHNPGHSHVHLPERNGHDPGRGHQDLDPDNEGELRHTRKREAPHVKNNAIISLRKDLNEDDHHHECLNVTQLLKYYGHGANSPISTDLFTYLCPALLYQIDSRLCIEHFDKLLVEDINKDKNLVPEDEANIGASAWICGIISITVISLLSLLGVILVPIINQGCFKFLLTFLVALAVGTMSGDALLHLLPHSQGGHDHSHQHAHGHGHSHGHESNKFLEEYDAVLKGLVALGGIYLLFIIEHCIRMFKHYKQQRGKQKWFMKQNTEESTIGRKLSDHKLNNTPDSDWLQLKPLAGTDDSVVSEDRLNETELTDLEGQQESPPKNYLCIEEEKIIDHSHSDGLHTIHEHDLHAAAHNHHGENKTVLRKHNHQWHHKHSHHSHGPCHSGSDLKETGIANIAWMVIMGDGIHNFSDGLAIGAAFSAGLTGGISTSIAVFCHELPHELGDFAVLLKAGMTVKQAIVYNLLSAMMAYIGMLIGTAVGQYANNITLWIFAVTAGMFLYVALVDMLPEMLHGDGDNEEHGFCPVGQFILQNLGLLFGFAIMLVIALYEDKIVFDIQF
B7: M-Q9UI26 (protein, UniProt Q9UI26 1-975, looked up)
Importin-11: MDLNSASTVVLQVLTQATSQDTAVLKPAEEQLKQWETQPGFYSVLLNIFTNHTLDINVRWLAVLYFKHGIDRYWRRVAPHALSEEEKTTLRAGLITNFNEPINQIATQIAVLIAKVARLDCPRQWPELIPTLIESVKVQDDLRQHRALLTFYHVTKTLASKRLAADRKLFYDLASGIYNFACSLWNHHTDTFLQEVSSGNEAAILSSLERTLLSLKVLRKLTVNGFVEPHKNMEVMGFLHGIFERLKQFLECSRSIGTDNVCRDRLEKTIILFTKVLLDFLDQHPFSFTPLIQRSLEFSVSYVFTEVGEGVTFERFIVQCMNLIKMIVKNYAYKPSKNFEDSSPETLEAHKIKMAFFTYPTLTEICRRLVSHYFLLTEEELTMWEEDPEGFTVEETGGDSWKYSLRPCTEVLFIDIFHEYNQTLTPVLLEMMQTLQGPTNVEDMNALLIKDAVYNAVGLAAYELFDSVDFDQWFKNQLLPELQVIHNRYKPLRRRVIWLIGQWISVKFKSDLRPMLYEAICNLLQDQDLVVRIETATTLKLTVDDFEFRTDQFLPYLETMFTLLFQLLQQVTECDTKMHVLHVLSCVIERVNMQIRPYVGCLVQYLPLLWKQSEEHNMLRCAILTTLIHLVQGLGADSKNLYPFLLPVIQLSTDVSQPPHVYLLEDGLELWLVTLENSPCITPELLRIFQNMSPLLELSSENLRTCFKIINGYIFLSSTEFLQTYAVGLCQSFCELLKEITTEGQVQVLKVVENALKVNPILGPQMFQPILPYVFKGIIEGERYPVVMSTYLGVMGRVLLQNTSFFSSLLNEMAHKFNQEMDQLLGNMIEMWVDRMDNITQPERRKLSALALLSLLPSDNSVIQDKFCGIINISVEGLHDVMTEDPETGTYKDCMLMSHLEEPKVTEDEEPPTEQDKRKKMLALKDPVHTVSLQQFIYEKLKAQQEMLGEQGFQSLMETVDTEIVTQLQEFLQGF
modifications: interactor of M protein
B8: M-Q9ULX6 (protein, UniProt Q9ULX6 1-646, looked up)
A-kinase anchor protein 8-like: MSYTGFVQGSETTLQSTYSDTSAQPTCDYGYGTWNSGTNRGYEGYGYGYGYGQDNTTNYGYGMATSHSWEMPSSDTNANTSASGSASADSVLSRINQRLDMVPHLETDMMQGGVYGSGGERYDSYESCDSRAVLSERDLYRSGYDYSELDPEMEMAYEGQYDAYRDQFRMRGNDTFGPRAQGWARDARSGRPMASGYGRMWEDPMGARGQCMSGASRLPSLFSQNIIPEYGMFQGMRGGGAFPGGSRFGFGFGNGMKQMRRTWKTWTTADFRTKKKKRKQGGSPDEPDSKATRTDCSDNSDSDNDEGTEGEATEGLEGTEAVEKGSRVDGEDEEGKEDGREEGKEDPEKGALTTQDENGQTKRKLQAGKKSQDKQKKRQRDRMVERIQFVCSLCKYRTFYEDEMASHLDSKFHKEHFKYVGTKLPKQTADFLQEYVTNKTKKTEELRKTVEDLDGLIQQIYRDQDLTQEIAMEHFVKKVEAAHCAACDLFIPMQFGIIQKHLKTMDHNRNRRLMMEQSKKSSLMVARSILNNKLISKKLERYLKGENPFTDSPEEEKEQEEAEGGALDEGAQGEAAGISEGAEGVPAQPPVPPEPAPGAVSPPPPPPPEEEEEGAVPLLGGALQRQIRGIPGLDVEDDEEGGGGAP

Tested on: SARS-CoV-1, MERS-CoV and SARS-CoV-2 proteins in HEK293T cells
Set-up: species or system human

Row | Molecule | MIST_MERS | MIST_SARS1 | MIST_SARS2 | Saint_MERS | Saint_SARS1 | Saint_SARS2
1 | B1 | 0.9832 | 0 | 0 | 1 | 0 | 0
2 | B2 | 0 | 0 | 0.9503 | 0 | 0 | 0.98
3 | B3 | 0.2719 | 0.9871 | 0.04352 | 0 | 1 | 1
4 | B4 | 0.9912 | 0 | 0 | 1 | 0 | 0
5 | B5 | 0.03892 | 0.6535 | 0.8931 | 0 | 0.98 | 0.66
6 | B6 | 0 | 0.7375 | 0 | 0 | 1 | 0
7 | B7 | 0.9937 | 0.6822 | 0.6494 | 0.99 | 1 | 1
8 | B8 | 0 | 0.34 | 0.752 | 0 | 0.98 | 1
